Assays:
Test in all cases: IEDB peptide-MHC binding, purified MHC/competitive/radioactivity; filed as Kd, often an IC50 or EC50 that approximates it; ≥ and ≤ were set here for values at or beyond the usual limits of such assays
[1] = target: HLA-A*02:03
[2] = target: HLA-A*02:02
[3] = target: HLA-A*02:06
[4] = target: HLA-A*68:01
[5] = target: HLA-A*31:01
[6] = target: HLA-A*03:01
[7] = target: HLA-A*33:01
[8] = target: HLA-A*11:01
[9] = source organism: Vaccinia virus WR
[10] = source organism: SARS coronavirus Tor2
[11] = source organism: Dengue virus 4 Dominica/814669/1981
[12] = source organism: Dengue virus 3 Martinique/1243/1999
[13] = source organism: Mammarenavirus whitewaterense
[14] = source organism: Dengue virus 4 Philippines/H241/1956
[15] = source organism: Dengue virus 1 Brazil/97-11/1997
[16] = source organism: Mammarenavirus choriomeningitidis

## IVPDIKLDA
[1]; [9]
  Kd: 15.7 µM
[2]; [9]
  Kd: 6.39 µM
[3]; [9]
  Kd: 3.43 µM

## LMDSIFVSTM
[1]; [9]
  Kd: 0.00815 µM
[2]; [9]
  Kd: 0.00365 µM
[3]; [9]
  Kd: 0.61 µM

## KLRDSYTQV
[1]; source organism: Dengue virus 1 Nauru/West Pac/1974
  Kd: 0.016 µM

## SLDQTHIKTI
[1]; [9]
  Kd: 0.0146 µM
[2]; [9]
  Kd: 1.43 µM
[3]; [9]
  Kd: 2.46 µM

## FQRALIFIL
[3]; source organism: Dengue virus 2 Jamaica/1409/1983
  Kd: 0.0169 µM

## CVDIFTEGKI
[1]; [9]
  Kd: 17.5 µM
[2]; [9]
  Kd: ≥ 70 µM
[3]; [9]
  Kd: ≥ 20.9 µM

## LVSDCASTI
[1]; [9]
  Kd: 0.0172 µM
[2]; [9]
  Kd: 0.0489 µM
[3]; [9]
  Kd: 0.0613 µM

## LLFQLCTFT
[1]; [10]
  Kd: 0.00377 µM
[2]; [10]
  Kd: 0.0223 µM
[3]; [10]
  Kd: 0.0111 µM

## CTINVNSLAL
[1]; [9]
  Kd: 1.04 µM
[2]; [9]
  Kd: 0.494 µM
[3]; [9]
  Kd: 0.216 µM

## RASTTENAA
[1]; [9]
  Kd: ≥ 66.7 µM
[2]; [9]
  Kd: ≥ 26.7 µM
[3]; [9]
  Kd: 12.1 µM

## EIMDKEQLL
[1]; [9]
  Kd: 0.427 µM
[2]; [9]
  Kd: 0.183 µM
[3]; [9]
  Kd: ≥ 26.5 µM

## MMNERDVSV
[1]; [9]
  Kd: 0.00027 µM
[2]; [9]
  Kd: 0.000441 µM
[3]; [9]
  Kd: 0.0639 µM

## LIDFYLCFL
[1]; [10]
  Kd: 0.061 µM
[2]; [10]
  Kd: 0.00831 µM
[3]; [10]
  Kd: 0.0109 µM

## NIPELKHGLL
[1]; [9]
  Kd: 2.69 µM
[2]; [9]
  Kd: 2.3 µM
[3]; [9]
  Kd: 1.23 µM

## YVLGVFLRKL
[3]; [11]
  Kd: 0.0815 µM

## SMYTRLRQDT
[1]; [9]
  Kd: 1.14 µM
[2]; [9]
  Kd: 6.56 µM
[3]; [9]
  Kd: ≥ 42.2 µM

## IVDTVSALV
[1]; [10]
  Kd: 0.528 µM
[2]; [10]
  Kd: 0.0166 µM
[3]; [10]
  Kd: 0.0429 µM

## FMTATPPGTA
[1]; [12]
  Kd: 0.00217 µM

## KLLNMRDLI
[1]; [9]
  Kd: 0.329 µM
[2]; [9]
  Kd: 0.496 µM
[3]; [9]
  Kd: 0.0438 µM

## LLSAGIFGA
[1]; [10]
  Kd: 0.0149 µM
[2]; [10]
  Kd: 0.0123 µM
[3]; [10]
  Kd: 0.0246 µM

## VVHGYFTEV
[1]; [10]
  Kd: 0.00327 µM
[2]; [10]
  Kd: 0.0172 µM
[3]; [10]
  Kd: 0.00263 µM

## NTFVNFNSV
[1]; [9]
  Kd: 0.0996 µM
[2]; [9]
  Kd: 5.02 µM
[3]; [9]
  Kd: 0.000346 µM

## TVIKTLLEV
[1]; [13]
  Kd: 0.0526 µM
[2]; [13]
  Kd: 2.01 µM
[3]; [13]
  Kd: 0.0166 µM

## ILNAHKDGV
[1]; [11]
  Kd: 0.329 µM

## RVILAGPIPV
[1]; [14]
  Kd: 0.0084 µM
[3]; [14]
  Kd: 0.0335 µM

## LMLVTPSMTM
[3]; [12]
  Kd: 0.974 µM

## DLEALKKETI
[3]; source organism: Homo sapiens
  Kd: ≥ 97.4 µM

## NLKYSVIVTV
[1]; [15]
  Kd: 0.0056 µM

## ELAAHQKKIL
[1]; source organism: Homo sapiens
  Kd: 19 µM

## FKMRPMFAV
[3]; [15]
  Kd: 0.0555 µM

## VSLSAYIIR
[4]; [9]
  Kd: 3.31 µM
[5]; [9]
  Kd: 0.0402 µM
[6]; [9]
  Kd: 8.56 µM
[7]; [9]
  Kd: 4 µM
[8]; [9]
  Kd: 1.11 µM

## ILMKTANNY
[4]; [9]
  Kd: ≥ 20.9 µM
[5]; [9]
  Kd: ≥ 77.9 µM
[6]; [9]
  Kd: 0.325 µM
[7]; [9]
  Kd: ≥ 77.7 µM
[8]; [9]
  Kd: 0.287 µM

## ISRTRLYDY
[4]; [9]
  Kd: ≥ 42.9 µM
[5]; [9]
  Kd: 1.24 µM
[6]; [9]
  Kd: 0.176 µM
[7]; [9]
  Kd: 2.19 µM
[8]; [9]
  Kd: 1.41 µM

## QIFNEDTSY
[4]; [9]
  Kd: 6.33 µM
[5]; [9]
  Kd: ≥ 77.9 µM
[6]; [9]
  Kd: 3.61 µM
[7]; [9]
  Kd: ≥ 77.7 µM
[8]; [9]
  Kd: 0.0732 µM

## DTIESAKTK
[4]; [9]
  Kd: 0.00582 µM
[5]; [9]
  Kd: 11.3 µM
[6]; [9]
  Kd: 4.1 µM
[7]; [9]
  Kd: 3.59 µM
[8]; [9]
  Kd: 0.672 µM

## LFQLCTFTK
[4]; [10]
  Kd: 0.579 µM
[5]; [10]
  Kd: 0.574 µM
[6]; [10]
  Kd: 0.438 µM
[7]; [10]
  Kd: 0.875 µM
[8]; [10]
  Kd: 0.191 µM

## AAIDRQVSVK
[4]; [9]
  Kd: 0.693 µM
[5]; [9]
  Kd: 16.5 µM
[6]; [9]
  Kd: 0.257 µM
[7]; [9]
  Kd: ≥ 70 µM
[8]; [9]
  Kd: 0.0106 µM

## LFKNLATSIY
[4]; [9]
  Kd: 19.9 µM
[5]; [9]
  Kd: ≥ 37.1 µM
[6]; [9]
  Kd: ≥ 41.7 µM
[7]; [9]
  Kd: ≥ 70 µM
[8]; [9]
  Kd: ≥ 69.8 µM

## MLTNAISSR
[4]; [9]
  Kd: 0.0134 µM
[5]; [9]
  Kd: 0.00957 µM
[6]; [9]
  Kd: 0.0131 µM
[7]; [9]
  Kd: 0.237 µM
[8]; [9]
  Kd: 4.11 µM

## RQVVNVITTK
[4]; [10]
  Kd: 0.305 µM
[5]; [10]
  Kd: 2.67 µM
[6]; [10]
  Kd: 0.114 µM
[7]; [10]
  Kd: ≥ 39.6 µM
[8]; [10]
  Kd: 0.216 µM

## EANASAQTK
[4]; [9]
  Kd: 0.0273 µM
[5]; [9]
  Kd: ≥ 56.3 µM
[6]; [9]
  Kd: 1.56 µM
[7]; [9]
  Kd: 12.5 µM
[8]; [9]
  Kd: 2.6 µM

## ILGGVLHTK
[4]; [9]
  Kd: 0.558 µM
[5]; [9]
  Kd: 1.38 µM
[6]; [9]
  Kd: 0.00192 µM
[7]; [9]
  Kd: 6.16 µM
[8]; [9]
  Kd: 0.0193 µM

## FVSLVKKNKK
[4]; [9]
  Kd: 0.0115 µM
[5]; [9]
  Kd: 0.284 µM
[6]; [9]
  Kd: 4.66 µM
[7]; [9]
  Kd: 9.29 µM
[8]; [9]
  Kd: 0.234 µM

## ASITPNNLNK
[4]; [9]
  Kd: 0.00694 µM
[5]; [9]
  Kd: 0.0476 µM
[6]; [9]
  Kd: 0.00129 µM
[7]; [9]
  Kd: ≥ 29.8 µM
[8]; [9]
  Kd: 0.00111 µM

## IVHSYLKNYK
[4]; [9]
  Kd: 0.257 µM
[5]; [9]
  Kd: 0.0275 µM
[6]; [9]
  Kd: 0.0973 µM
[7]; [9]
  Kd: 9.72 µM
[8]; [9]
  Kd: 0.058 µM

## SAYLISIFMH
[4]; [16]
  Kd: ≥ 70.1 µM
[5]; [16]
  Kd: 0.659 µM
[6]; [16]
  Kd: 1.23 µM
[7]; [16]
  Kd: 2.95 µM
[8]; [16]
  Kd: 5.63 µM

## FLIVSLCPTK
[4]; [9]
  Kd: 0.977 µM
[5]; [9]
  Kd: ≥ 25.6 µM
[6]; [9]
  Kd: 0.219 µM
[7]; [9]
  Kd: 15.1 µM
[8]; [9]
  Kd: 0.0022 µM

Source: the Immune Epitope Database (IEDB)
